Experimental data: patent publication US20150299255A1

Target: lectin SNA1 from Sambucus nigra (Sambucus nigra) (UniProt Q41358)
Sequence (Q41358 29-289 limits assumed, chain 1 of 2): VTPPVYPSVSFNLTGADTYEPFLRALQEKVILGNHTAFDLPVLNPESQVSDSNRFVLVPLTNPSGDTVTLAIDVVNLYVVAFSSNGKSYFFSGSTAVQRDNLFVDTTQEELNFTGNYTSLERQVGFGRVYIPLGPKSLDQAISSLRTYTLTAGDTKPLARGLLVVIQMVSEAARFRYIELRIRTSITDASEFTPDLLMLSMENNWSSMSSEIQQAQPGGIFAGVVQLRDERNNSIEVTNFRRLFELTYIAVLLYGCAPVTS
Sequence (Q41358 309-570 limits assumed, chain 2 of 2): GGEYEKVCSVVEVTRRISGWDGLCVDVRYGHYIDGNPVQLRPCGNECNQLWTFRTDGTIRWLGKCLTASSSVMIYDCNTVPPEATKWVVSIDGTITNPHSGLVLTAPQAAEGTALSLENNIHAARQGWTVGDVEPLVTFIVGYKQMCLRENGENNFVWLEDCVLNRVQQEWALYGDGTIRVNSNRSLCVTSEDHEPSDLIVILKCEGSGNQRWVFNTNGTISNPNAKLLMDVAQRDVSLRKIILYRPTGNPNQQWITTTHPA

Chain of fetuin (P12763 19-359): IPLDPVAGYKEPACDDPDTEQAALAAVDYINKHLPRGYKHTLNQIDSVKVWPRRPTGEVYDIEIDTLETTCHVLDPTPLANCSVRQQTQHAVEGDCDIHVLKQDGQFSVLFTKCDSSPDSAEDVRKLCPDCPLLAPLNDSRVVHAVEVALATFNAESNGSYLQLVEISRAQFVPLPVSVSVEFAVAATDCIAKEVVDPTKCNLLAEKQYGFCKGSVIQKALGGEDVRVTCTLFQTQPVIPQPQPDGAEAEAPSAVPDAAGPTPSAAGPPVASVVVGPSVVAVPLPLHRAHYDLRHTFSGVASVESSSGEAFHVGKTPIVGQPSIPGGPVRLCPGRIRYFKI

## fetuin (from UniProt P12763 19-359)
  amount of fetuin giving essentially complete inhibition of SVH1C binding (pmoles per well): 500
  percent inhibition of SVH1C binding at 100 pmoles fetuin per well: 50%
